Test results: patent US20140271457A1 (AbbVie / Abbott, published 2014)
Positions count from the first letter of the chain named.

Target: Recombinant Human IL-13 (human, UniProt P35225 35-146, limits assumed)
Experiment: cell-based or functional assay

Recombinant Human IL-13, sequence (P35225 35-146 limits assumed): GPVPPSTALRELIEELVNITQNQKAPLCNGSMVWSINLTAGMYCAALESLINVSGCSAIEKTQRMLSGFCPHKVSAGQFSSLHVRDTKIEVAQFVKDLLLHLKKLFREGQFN

B1: DVD2692 (bispecific antibody, human IgG1, kappa)
heavy: not shown
light: DIQMTQSPSSLSASVGDRVTISCRASQDIRNYLNWYQQKPGKAPKLLIFYTSKLHSGVPSRFSGSGSGTDYTLTISSLQPEDIATYYCQQGLTPPLTFGGGTKVEIKRTVAAPDIQMTQSPSSLSASVGDRVTITCRASQLVSSAVAWYQQKPGKAPKLLIYWASARHTGVPSRFSGSGSGTDFTLTISSLQPEDFATYYCQQHYKTPFTFGQGTKLEIKRTVAAPSVFIFPPSDEQLKSGTASVVCLLNNFYPREAKVQWKVDNALQSGNSQESVTEQDSKDSTYSLSSTLTLSKADYEKHKVYACEVTHQGLSSPVTKSFNRGEC
IL-13 Neutralization Assay IC50: 0.131 nM

B2: DVD2738 (bispecific antibody, human IgG1, kappa)
heavy: not shown
light: DIQMTQSPSSLSASVGDRVTISCRASQDIRNYLNWYQQKPGKAPKLLIFYTSKLHSGVPSRFSGSGSGTDYTLTISSLQPEDIATYYCQQGLTPPLTFGGGTKVEIKRGGSGGGGSGDIQMTQSPSSLSASVGDRVTITCKASQLVSSAVAWYQQKPGKAPKLLIYWASTLHTGVPSRFSGSGSGTDFTLTISSLQPEDFATYYCQQHYRTPFTFGQGTKLEIKRTVAAPSVFIFPPSDEQLKSGTASVVCLLNNFYPREAKVQWKVDNALQSGNSQESVTEQDSKDSTYSLSSTLTLSKADYEKHKVYACEVTHQGLSSPVTKSFNRGEC
IL-13 Neutralization Assay IC50: 0.149 nM

B3: DVD2739 (bispecific antibody, human IgG1, kappa)
heavy: not shown
light: B1 light with R137K, A166T, R167L, K206R
IL-13 Neutralization Assay IC50: 0.132 nM

B4: DVD2741 (bispecific antibody, human IgG1, kappa)
heavy: not shown
light: DIQMTQSPSSLSASVGDRVTISCRASQDIRNYLNWYQQKPGKAPKLLIFYTSKLHSGVPSRFSGSGSGTDYTLTISSLQPEDIATYYCQQGLTPPLTFGGGTKVEIKRTVAAPSVFIFPPDIQMTQSPSSLSASVGDRVTITCKASQLVSSAVAWYQQKPGKAPKLLIYWASTLHTGVPSRFSGSGSGTDFTLTISSLQPEDFATYYCQQHYRTPFTFGQGTKLEIKRTVAAPSVFIFPPSDEQLKSGTASVVCLLNNFYPREAKVQWKVDNALQSGNSQESVTEQDSKDSTYSLSSTLTLSKADYEKHKVYACEVTHQGLSSPVTKSFNRGEC
IL-13 Neutralization Assay IC50: 0.118 nM

B5: DVD2742 (bispecific antibody, human IgG1, kappa)
heavy: not shown
light: B1 light with R137K, A166T, R167L, K206R
IL-13 Neutralization Assay IC50: 0.064 nM

B6: AB398 (antibody, V domains shown)
VH: EVQLVQSGAEVKKPGASVKVSCKASGYTFTTYGVSWVRQAPGQGLEWMGEIYPGNYNTYYNEKFRGRVTMTTDTSTSTAYMELRSLRSDDTAVYYCARWRTSYFSDYGYFDYWGQGTTVTVSS
VL: DVVMTQSPLSLPVTLGQPASISCRSSQSLVHSHGNTYLHWYQQRPGQSPRLLIYTVSNRFSGVPDRFSGSGSGTDFTLKISRVEAEDVGVYYCSQSTHVPYTFGGGTKVEIKR
IL-13 Neutralization Assay IC50: 0.068 nM

B7: DVD2788 (bispecific antibody, human IgG1, kappa)
heavy: not shown
light: DIQMTQSPSSLSASVGDRVTISCRASQDIRNYLNWYQQKPGKAPKLLIFYTSKLHSGVPSRFSGSGSGTDYTLTISSLQPEDIATYYCQQGLTPPLTFGGGTKVEIKRGGSGGGGSGDIQMTQSPSSLSASVGDRVTITCRASQDISQYLNWYQQKPGKAPKLLIYYTSRLQSGVPSRFSGSGSGTDFTLTISSLQPEDFATYFCQQGNTWPPTFGQGTKLEIKRTVAAPSVFIFPPSDEQLKSGTASVVCLLNNFYPREAKVQWKVDNALQSGNSQESVTEQDSKDSTYSLSSTLTLSKADYEKHKVYACEVTHQGLSSPVTKSFNRGEC
IL-13 Neutralization Assay IC50: 0.072 nM

B8: DVD2789 (bispecific antibody, human IgG1, kappa)
heavy: not shown
light: DIQMTQSPSSLSASVGDRVTISCRASQDIRNYLNWYQQKPGKAPKLLIFYTSKLHSGVPSRFSGSGSGTDYTLTISSLQPEDIATYYCQQGLTPPLTFGGGTKVEIKRTVAAPDIQMTQSPSSLSASVGDRVTITCRASQDISQYLNWYQQKPGKAPKLLIYYTSRLQSGVPSRFSGSGSGTDFTLTISSLQPEDFATYFCQQGNTWPPTFGQGTKLEIKRTVAAPSVFIFPPSDEQLKSGTASVVCLLNNFYPREAKVQWKVDNALQSGNSQESVTEQDSKDSTYSLSSTLTLSKADYEKHKVYACEVTHQGLSSPVTKSFNRGEC
IL-13 Neutralization Assay IC50: 0.078 nM

B9: DVD2791 (bispecific antibody, human IgG1, kappa)
heavy: not shown
light: DIQMTQSPSSLSASVGDRVTISCRASQDIRNYLNWYQQKPGKAPKLLIFYTSKLHSGVPSRFSGSGSGTDYTLTISSLQPEDIATYYCQQGLTPPLTFGGGTKVEIKRTVAAPSVFIFPPDIQMTQSPSSLSASVGDRVTITCRASQDISQYLNWYQQKPGKAPKLLIYYTSRLQSGVPSRFSGSGSGTDFTLTISSLQPEDFATYFCQQGNTWPPTFGQGTKLEIKRTVAAPSVFIFPPSDEQLKSGTASVVCLLNNFYPREAKVQWKVDNALQSGNSQESVTEQDSKDSTYSLSSTLTLSKADYEKHKVYACEVTHQGLSSPVTKSFNRGEC
IL-13 Neutralization Assay IC50: 0.245 nM

B10: DVD2792 (bispecific antibody, human IgG1, kappa)
heavy: not shown
light: B8 light
IL-13 Neutralization Assay IC50: 0.361 nM

B11: AB399 (antibody, V domains shown)
VH: EVQLVQSGAEVKKPGASVKVSCKASGYTFTSYWMHWVRQAPGQGLEWIGNINPKGGSNIYNEKFQGRVTMTRDTSISTAYMELSRLRSDDTAVYYCARLDYFGDSFDLWGQGTTVTVSS
VL: DIQMTQSPSSLSASVGDRVTITCRASQGIRNYLNWYQQKPGKAPKLLIYYASNLEVGVPSRFSGSGSGTDYTLTISSLQPEDFATYYCQQDNRFPYTFGGGTKVEIKR
IL-13 Neutralization Assay IC50: 0.075 nM

B12: DVD3013 (bispecific antibody, human IgG1, kappa)
heavy: not shown
light: B7 light with S147E, Q148N, W211Q
IL-13 Neutralization Assay IC50: 0.077 nM
